Experimental data published in US20090181894A1.

Target: GnRH binding sites on neoplastic cells (plasma membranes of the SW-48 colon adenocarcinoma cell line in the binding assay)
Assay: binding of 125I-GnRH to plasma membranes of SW-48 cells, filter assay

non-specific binding: 37%
Substance: 125I-GnRH (from UniProt P01148) (peptide)
